# Assays:
# [1] = target: PduA* (Citrobacter freundii PduA with a C-terminal 23 residue extension) (C. freundii); experiment: native gel or EMSA; PduA and variants alone on native PAGE run at pH 8.5, 4 °C; low mobility = tessellated, high mobility = not tessellated; step: hexamer with hexamer (tessellation)
# PduA* A63R (C. freundii) = experiment: native gel or EMSA; PduA, A63R and A^GGSST alone on native gel run at pH 9.5; mobility tells tessellated from not tessellated; step: hexamer with hexamer (tessellation)
# [2] = target: PduA* (Citrobacter freundii PduA with a C-terminal 23 residue extension) (C. freundii); experiment: native gel or EMSA; titration of tagless PduL into His-tagged PduA on a 6% acrylamide native gel, with anti-His Western blot to locate PduA
# [3] = target: PduA* (Citrobacter freundii PduA with a C-terminal 23 residue extension) (C. freundii); experiment: native gel or EMSA; titration of PduL into PduA trimer of hexamers on a native gradient gel (higher resolution)
molecule,measurement,setting,value
PduA* (Citrobacter freundii PduA with a C-terminal 23 residue extension) (natural protein),stoichiometry N,[1],3 hexamers
PduA* A63R (natural protein),stoichiometry N,PduA* A63R (C. freundii),3 hexamers
"PduL (Citrobacter freundii), His-tag cleaved (enzyme) MDKQQLETTVTKVLDEMRERPIPLGISNRHIHLCAEDYDRLFPNHPISEKKELLQPGQYAADQTVTLVGPKGQLKNVRLLGPLRSTSQVEISRTDARTLGIAAPLRMSGSIEGTPGVRLISPFAELDLASGVIVAQRHIHMSPLDALILRVSHGDKVSVAINGDERRLIFDNVAVRVSPDMRLEMHIDTDEANAAGADNPQAFATLVSPR",stoichiometry N (PduL dimer per PduA hexamer),[2],1
same,stoichiometry N (PduL dimers per PduA trimer of hexamers),[3],3

# — paper PMC11157265
